Data from the supplement of paper PMC11246515.
± gives the standard deviation of the averaged measurements.

Assay: total protein half-life in vivo (active degradation + dilution); higher = more stable protein
[1] = E. coli NCM3722 delta-clpP delta-lon delta-hslV, growth: N-lim chemostat, doubling time 6 h
[2] = E. coli NCM3722 delta-clpP, growth: N-lim chemostat, doubling time 6 h
[3] = E. coli NCM3722 delta-lon, growth: N-lim chemostat, doubling time 6 h
[4] = E. coli NCM3722 delta-smpB, growth: N-lim chemostat, doubling time 6 h
[5] = wild type E. coli NCM3722, growth: C-lim chemostat, doubling time 3 h
[6] = wild type E. coli NCM3722, growth: C-lim chemostat, doubling time 6 h
[7] = wild type E. coli NCM3722, growth: C-lim chemostat, doubling time 12 h
[8] = wild type E. coli NCM3722, growth: N-lim chemostat, doubling time 6 h
[9] = wild type E. coli NCM3722, growth: N-lim chemostat, doubling time 12 h
[10] = wild type E. coli NCM3722, growth: P-lim chemostat, doubling time 6 h
[11] = wild type E. coli NCM3722, growth: P-lim chemostat, doubling time 12 h
[12] = E. coli NCM3722 delta-hslV, growth: N-lim chemostat, doubling time 6 h

| Sequence | total protein half-life in vivo [1] [h] | total protein half-life in vivo [2] [h] | total protein half-life in vivo [3] [h] | total protein half-life in vivo [4] [h] | total protein half-life in vivo [5] [h] | total protein half-life in vivo [6] [h] | total protein half-life in vivo [7] [h] | total protein half-life in vivo [8] [h] | total protein half-life in vivo [9] [h] | total protein half-life in vivo [10] [h] | total protein half-life in vivo [11] [h] | total protein half-life in vivo [12] [h] |
| --- | --- | --- | --- | --- | --- | --- | --- | --- | --- | --- | --- | --- |
| MHENQQPQTEAFELSAAEREAIEHEMHHYEDPRAASIEALKIVQKQRGWVPDGAIHAIADVLGIPASDVEGVATFYSQIFRQPVGRHVIRYCDSVVCHINGYQGIQAALEKKLNIKPGQTTFDGRFTLLPTCCLGNCDKGPNMMIDEDTHAHLTPEAIPELLERYK [P0AFD1] | 5.62 ± 0.92 | 5.62 ± 0.45 | 5.97 ± 0.51 | 6.57 ± 0.34 | 2.65 ± 0.54 | 4.79 ± 0.22 | 8.87 ± 1.4 | 5.04 ± 0.18 | 10.3 ± 0.36 | 4.85 ± 0.61 | 11 ± 0.14 |  |
| MDNDKIDQHSDEIEVESEEKERGKKIEIDEDRLPSRAMAIHEHIRQDGEKELERDAMALLWSAIAAGLSMGASLLAKGIFQVELEGVPGSFLLENLGYTFGFIIVIMARQQLFTENTVTAVLPVMQKPTMSNVGLLIRLWGVVLLGNILGTGIAAWAFEYMPIFNEETRDAFVKIGMDVMKNTPSEMFANAIISGWLIATMVWMFPAAGAAKIVVIILMTWLIALGDTTHIVVGSVEILYLVFNGTLHWSDFIWPFALPTLAGNICGGTFIFALMSHAQIRNDMSNKRKAEARQKAERAENIKKNYKNPA | 6.19 ± 0.79 | 5.38 ± 0.26 | 5.46 | 6.11 ± 1.4 | 3.47 | 5.51 ± 0.23 | 11.5 ± 1.9 | 5.75 ± 1.1 | 13.5 ± 1.3 | 6.29 ± 0.45 | 12.6 ± 0.066 | 5.3 |
| MHNDKDLSTWQTFRRLWPTIAPFKAGLIVAGVALILNAASDTFMLSLLKPLLDDGFGKTDRSVLVWMPLVVIGLMILRGITSYVSSYCISWVSGKVVMTMRRRLFGHMMGMPVSFFDKQSTGTLLSRITYDSEQVASSSSGALITVVREGASIIGLFIMMFYYSWQLSIILIVLAPIVSIAIRVVSKRFRNISKNMQNTMGQVTTSAEQMLKGHKEVLIFGGQEVETKRFDKVSNRMRLQGMKMVSASSISDPIIQLIASLALAFVLYAASFPSVMDSLTAGTITVVFSSMIALMRPLKSLTNVNAQFQRGMAACQTLFTILDSEQEKDEGKRVIERATGDVEFRNVTFTYPGRDVPALRNINLKIPAGKTVALVGRSGSGKSTIASLITRFYDIDEGEILMDGHDLREYTLASLRNQVALVSQNVHLFNDTVANNIAYARTEQYSREQIEEAARMAYAMDFINKMDNGLDTVIGENGVLLSGGQRQRIAIARALLRDSPILILDEATSALDTESERAIQAALDELQKNRTSLVIAHRLSTIEKADEIVVVEDGVIVERGTHNDLLEHRGVYAQLHKMQFGQ | 5.89 ± 0.51 | 5.99 ± 0.27 | 6.51 ± 0.63 | 6.04 ± 0.25 | 3.38 ± 0.053 | 5.63 ± 0.13 | 11.4 ± 3 | 6.15 ± 0.19 |  | 5.9 ± 0.39 | 11.3 ± 0.23 | 6.35 ± 0.47 |
| MALLQISEPGLSAAPHQRRLAAGIDLGTTNSLVATVRSGQAETLADHEGRHLLPSVVHYQQQGHSVGYDARTNAALDTANTISSVKRLMGRSLADIQQRYPHLPYQFQASENGLPMIETAAGLLNPVRVSADILKALAARATEALAGELDGVVITVPAYFDDAQRQGTKDAARLAGLHVLRLLNEPTAAAIAYGLDSGQEGVIAVYDLGGGTFDISILRLSRGVFEVLATGGDSALGGDDFDHLLADYIREQAGIPDRSDNRVQRELLDAAIAAKIALSDADSVTVNVAGWQGEISREQFNELIAPLVKRTLLACRRALKDAGVEADEVLEVVMVGGSTRVPLVRERVGEFFGRPPLTSIDPDKVVAIGAAIQADILVGNKPDSEMLLLDVIPLSLGLETMGGLVEKVIPRNTTIPVARAQDFTTFKDGQTAMSIHVMQGERELVQDCRSLARFALRGIPALPAGGAHIRVTFQVDADGLLSVTAMEKSTGVEASIQVKPSYGLTDSEIASMIKDSMSYAEQDVKARMLAEQKVEAARVLESLHGALAADAALLSAAERQVIDDAAAHLSEVAQGDDVDAIEQAIKNVDKQTQDFAARRMDQSVRRALKGHSVDEV [P0A6Z1] | 5.04 ± 0.78 | 4.05 ± 0.14 | 3.22 ± 0.24 | 2.53 ± 0.028 | 2.7 ± 0.2 | 4.48 ± 0.47 | 7.07 ± 1.1 | 2.857 ± 0.016 | 3.54 ± 0.12 | 4.05 ± 0.31 | 6.96 ± 0.068 | 2.65 ± 0.14 |
| MFSALRHRTAALALGVCFILPVHASSPKPGDFANTQARHIATFFPGRMTGTPAEMLSADYIRQQFQQMGYRSDIRTFNSRYIYTARDNRKSWHNVTGSTVIAAHEGKAPQQIIIMAHLDTYAPLSDADADANLGGLTLQGMDDNAAGLGVMLELAERLKNTPTEYGIRFVATSGEEEGKLGAENLLKRMSDTEKKNTLLVINLDNLIVGDKLYFNSGVKTPEAVRKLTRDRALAIARSHGIAATTNPGLNKNYPKGTGCCNDAEIFDKAGIAVLSVEATNWNLGNKDGYQQRAKTPAFPAGNSWHDVRLDNHQHIDKALPGRIERRCRDVMRIMLPLVKELAKAS |  | 5.3 ± 0.29 | 5.44 ± 0.031 | 4.38 ± 0.053 | 2.58 ± 0.67 | 2.46 |  | 5.37 ± 1 | 9.09 ± 1.6 | 4 ± 0.27 | 7.1 ± 0.99 | 5.24 ± 0.83 |
| MRIEEDLKLGFKDVLIRPKRSTLKSRSDVELERQFTFKHSGQSWSGVPIIAANMDTVGTFSMASALASFDILTAVHKHYSVEEWQAFINNSSADVLKHVMVSTGTSDADFEKTKQILDLNPALNFVCIDVANGYSEHFVQFVAKAREAWPTKTICAGNVVTGEMCEELILSGADIVKVGIGPGSVCTTRVKTGVGYPQLSAVIECADAAHGLGGMIVSDGGCTTPGDVAKAFGGGADFVMLGGMLAGHEESGGRIVEENGEKFMLFYGMSSESAMKRHVGGVAEYRAAEGKTVKLPLRGPVENTARDILGGLRSACTYVGASRLKELTKRTTFIRVQEQENRIFNNL | 6.23 ± 0.89 | 4.46 ± 0.16 | 5.46 ± 0.17 | 4.22 ± 0.21 | 2.77 ± 0.19 | 6.13 ± 0.25 | 9.9351 ± 0.0054 | 4.71 ± 0.14 | 7.56 ± 0.75 | 6.2 ± 0.3 | 11 ± 0.55 | 4.34 ± 0.1 |
